# Experimental data: patent US20260098102A1 (NATIONAL UNIVERSITY CORPORATION KOBE UNIVERSITY, published 2026)
# Numbering of substitutions follows the chain as printed.
# T1: human SIRPA_V4 (human, UniProt P78324 31-504)
# T1 construct: FLAG-tagged (pFLAG V5-DEST), on 293α cells; also called human SIRPA Variant 4
# T1 chain: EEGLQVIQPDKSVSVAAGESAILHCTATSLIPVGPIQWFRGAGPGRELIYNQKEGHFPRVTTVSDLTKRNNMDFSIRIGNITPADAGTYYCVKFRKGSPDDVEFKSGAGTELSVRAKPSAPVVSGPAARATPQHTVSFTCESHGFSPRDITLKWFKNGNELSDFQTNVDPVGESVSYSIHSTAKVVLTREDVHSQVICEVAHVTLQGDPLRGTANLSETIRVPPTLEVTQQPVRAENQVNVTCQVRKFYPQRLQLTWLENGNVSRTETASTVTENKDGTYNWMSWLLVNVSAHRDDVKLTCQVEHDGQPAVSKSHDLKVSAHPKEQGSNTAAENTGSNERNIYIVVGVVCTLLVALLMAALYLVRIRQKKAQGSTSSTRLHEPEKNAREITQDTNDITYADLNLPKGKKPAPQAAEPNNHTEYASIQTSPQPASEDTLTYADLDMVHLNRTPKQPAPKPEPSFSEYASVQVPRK
# T2: mouse SIRPA BALB/c (mouse (BALB/c), UniProt P97797 35-513)
# T2 construct: FLAG-tagged (pFLAG V5-DEST), on 293α cells
# T2 chain: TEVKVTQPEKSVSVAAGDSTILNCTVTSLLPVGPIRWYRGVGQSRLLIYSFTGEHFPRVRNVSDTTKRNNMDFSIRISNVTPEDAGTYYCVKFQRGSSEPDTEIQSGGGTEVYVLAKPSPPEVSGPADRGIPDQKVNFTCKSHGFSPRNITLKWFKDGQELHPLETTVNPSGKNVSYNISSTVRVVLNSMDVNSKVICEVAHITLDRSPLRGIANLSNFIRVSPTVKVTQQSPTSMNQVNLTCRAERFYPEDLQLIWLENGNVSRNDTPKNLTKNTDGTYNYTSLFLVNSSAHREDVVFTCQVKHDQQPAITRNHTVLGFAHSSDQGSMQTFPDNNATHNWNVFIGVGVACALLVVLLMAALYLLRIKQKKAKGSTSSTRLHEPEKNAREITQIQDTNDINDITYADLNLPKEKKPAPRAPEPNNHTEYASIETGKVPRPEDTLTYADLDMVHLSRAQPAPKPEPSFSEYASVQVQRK
# B1: human chimeric anti-SIRPA antibody cD13 (antibody, human IgG4 S228P, kappa, F234A L235A, V domains shown)
# VH: EVQLVESGGGLVQPGRSLKLSCLASGFTFSDYGMIWVRQAPGKGLEWVASISSSSSYIYYADTVKGRFTISRENAKNTLFLHMTSLRSEDTALYYCARRYYGFNYPFDYWGQGVMVTVSS
# VL: DTVLTQSPALAVSLGQRVTISCGASKSVRTYMHWYQQKSGQQPKLLIYSASNLEAGVPSRFSGSGSGTDFTLTIDPVEADDIANYYCQQSNEPPYTFGAGTKLELKR
# notes: Human IgG4proFALA heavy chain, human kappa light chain; also called cD13 (IgG4pf); human chimeric antibody D13
# B2: humanized anti-SIRPA antibody hD13_H1L3 (antibody, human IgG4 S228P, kappa, F234A L235A, V domains shown)
# VH: QVQLVESGGGVVQPGRSLRLSCAASGFTFSDYGMIWVRQAPGKGLEWVASISSSSSYIYYADSVKGRFTISRDNSKNRLYLQMNSLRAEDTAVYYCARRYYGFNYPFDYWGQGTMVTVSS
# VL: DTQLTQSPSSLSASVGQRVTITCGASKSVRTYMHWYQQKPGKQPKLLIYSASNLEAGVPSRFSGSGSGTDFTLTISSLQPEDFATYYCQQSNEPPYTFGQGTKLEIKR
# notes: hH1 heavy chain (IgG4proFALA) and hL3 kappa light chain; also called hD13_HIL3; HIL3 antibody
# B3: humanized anti-SIRPA antibody hD13_H2L3 (antibody, human IgG4 S228P, kappa, F234A L235A, V domains shown)
# VH: B2 VH with Q1E, R78T
# VL: B2 VL
# notes: hH2 heavy chain (IgG4proFALA) and hL3 kappa light chain; also called H2L3 antibody
# B4: humanized anti-SIRPA antibody hD13_H2L2 (antibody, human IgG4 S228P, kappa, F234A L235A, V domains shown)
# VH: B2 VH with Q1E, R78T
# VL: B2 VL with D1A, T2I, Q43A
# notes: hH2 heavy chain (IgG4proFALA) and hL2 kappa light chain; also called H2L2 antibody
# B5: humanized anti-SIRPA antibody hD13_H1L4 (antibody, human IgG4 S228P, kappa, F234A L235A, V domains shown)
# VH: B2 VH
# VL: DTVLTQSPDSLAVSLGQRATINCGASKSVRTYMHWYQQKPGQQPKLLIYSASNLEAGVPSRFSGSGSGTDFTLTISSLQAEDVAVYYCQQSNEPPYTFGQGTKVEIKR
# notes: hH1 heavy chain (IgG4proFALA) and hL4 kappa light chain; also called hD13_HIL4; hD13_HIL4h
# Molecular target: T1, human SIRPA_V4
# Experiment: cell-based ELISA on 293α cells expressing FLAG-tagged SIRPA_V4; Abs 490 normalized to FLAG tag [iv]
# Method: (§1) The 293a cells, described in Example 1)-6, were prepared at 5× 10⁵ cells/mL in a 10% FBS-containing DMEM medium. pFLAG V5-DEST-SIRPA_V1-V10, pFLAG V5-DEST-monkey SIRPA, pFLAG V5-DEST-mouse SIRPA, or pFLAG V5-DEST was introduced into the cells using Lipofectamine LTX (Invitrogen), and 100 μL each was aliquoted to a 96-well plate (Corning Incorporated) and cultured overnight in a 10% FBS-containing DMEM medium at 37° C. under a 5% CO₂ condition. The obtained introduced cells were used for cell-based ELISA in a state that they adhered. After the culture supernatant was removed, 50 μL per well of hD13_HIL3, hD13_HIL4h, hD13_H2L2, hD13_H2L3, or cD13 prepared in Examples 6 and 7 or a control antibody was added to each of various SIRPA genes-introduced cells at a final concentration of 0 to 10,000 ng/ml, and the mixture was allowed to stand at 4° C. for one hour. Thereafter, binding to human SIRPA was evaluated in the same manner as in Example 5-1.
row,EC50 (read off the curve) [mg/L],Binder
1,~0.04,B1
2,~0.03,B2
3,~0.04,B3
4,~0.04,B4
5,~0.04,B5

# Molecular target: T3, human SIRPA_V7 (human, UniProt P78324 31-504)
# T3 construct: FLAG-tagged (pFLAG V5-DEST), on 293α cells; also called human SIRPA Variant 7
# T3 sequence (P78324 other isoform, or with tags, fused parts or gaps limits assumed): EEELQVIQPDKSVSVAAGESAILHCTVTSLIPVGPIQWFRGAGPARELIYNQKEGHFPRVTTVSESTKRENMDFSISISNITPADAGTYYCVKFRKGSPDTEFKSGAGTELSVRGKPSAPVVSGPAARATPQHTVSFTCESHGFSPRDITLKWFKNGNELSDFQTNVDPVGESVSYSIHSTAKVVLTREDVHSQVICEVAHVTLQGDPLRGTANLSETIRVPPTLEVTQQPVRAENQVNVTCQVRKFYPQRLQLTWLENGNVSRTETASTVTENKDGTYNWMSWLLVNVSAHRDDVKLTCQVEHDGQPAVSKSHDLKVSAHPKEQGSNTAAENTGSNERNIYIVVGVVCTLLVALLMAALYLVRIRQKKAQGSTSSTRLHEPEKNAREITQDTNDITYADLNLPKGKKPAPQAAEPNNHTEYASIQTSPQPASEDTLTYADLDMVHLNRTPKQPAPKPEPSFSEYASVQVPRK
# Experiment: cell-based ELISA on 293α cells expressing FLAG-tagged SIRPA_V7; Abs 490 normalized to FLAG tag [iii]
# Method: as §1
row,EC50 (read off the curve) [mg/L],Binder
1,~0.04,B1
2,~0.04,B2
3,~0.04,B3
4,~0.04,B4
5,~0.04,B5

# Molecular target: T4, human SIRPA_V10 (human, UniProt P78324 31-504)
# T4 construct: FLAG-tagged (pFLAG V5-DEST), on 293α cells; also called human SIRPA Variant 10
# T4 sequence (P78324 other isoform, or with tags, fused parts or gaps limits assumed): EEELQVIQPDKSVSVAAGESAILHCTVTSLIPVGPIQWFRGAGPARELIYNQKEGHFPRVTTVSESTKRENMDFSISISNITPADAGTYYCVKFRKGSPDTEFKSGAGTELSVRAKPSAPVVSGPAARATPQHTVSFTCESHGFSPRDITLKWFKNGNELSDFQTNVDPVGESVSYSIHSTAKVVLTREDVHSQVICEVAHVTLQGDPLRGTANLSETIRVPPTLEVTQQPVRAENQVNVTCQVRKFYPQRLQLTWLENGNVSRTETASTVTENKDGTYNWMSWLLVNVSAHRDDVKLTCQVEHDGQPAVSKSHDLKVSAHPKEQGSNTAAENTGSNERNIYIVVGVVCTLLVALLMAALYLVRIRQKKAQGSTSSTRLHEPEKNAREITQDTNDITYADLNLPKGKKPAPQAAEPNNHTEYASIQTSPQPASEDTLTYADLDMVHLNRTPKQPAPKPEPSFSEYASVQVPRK
# Experiment: cell-based ELISA on 293α cells expressing FLAG-tagged SIRPA_V10; Abs 490 normalized to FLAG tag [ii]
# Method: as §1
row,EC50 (read off the curve) [mg/L],Binder
1,~0.03,B1
2,~0.03,B2
3,~0.03,B3
4,~0.03,B4
5,~0.03,B5

# Molecular target: T2, mouse SIRPA BALB/c
# Experiment: cell-based ELISA on 293α cells expressing FLAG-tagged mouse SIRPA (BALB/c); Abs 490 normalized to FLAG tag [ii]
# Method: as §1
row,binding result,Binder
1,no binding (tested: 10000 ng/mL),B1
2,no binding (tested: 10000 ng/mL),B2
3,no binding (tested: 10000 ng/mL),B3
4,no binding (tested: 10000 ng/mL),B4
5,no binding (tested: 10000 ng/mL),B5

# Molecular target: T5, human SIRPA_V1 protein (human, UniProt P78324 31-504)
# T5 construct: Expressed on 293α cells from pcDNA3.2 V5-DEST or pFLAG V5-DEST (FLAG-tagged) vectors; also called human SIRPA Variant 1; hSIRPA V1
# T5 sequence (P78324 31-504 limits assumed): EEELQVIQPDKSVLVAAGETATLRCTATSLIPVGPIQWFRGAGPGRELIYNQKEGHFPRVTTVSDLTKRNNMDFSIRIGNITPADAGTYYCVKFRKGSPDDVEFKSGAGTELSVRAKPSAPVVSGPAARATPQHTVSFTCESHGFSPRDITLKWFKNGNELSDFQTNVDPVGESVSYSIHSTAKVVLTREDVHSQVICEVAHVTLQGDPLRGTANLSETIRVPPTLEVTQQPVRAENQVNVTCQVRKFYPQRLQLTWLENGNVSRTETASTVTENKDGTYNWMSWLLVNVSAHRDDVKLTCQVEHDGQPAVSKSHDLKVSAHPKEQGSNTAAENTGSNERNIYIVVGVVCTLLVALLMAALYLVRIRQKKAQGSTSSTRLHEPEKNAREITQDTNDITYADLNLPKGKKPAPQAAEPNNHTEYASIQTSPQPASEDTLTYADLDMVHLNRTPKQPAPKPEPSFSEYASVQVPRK
# Experiment: blocking cell-based ELISA: peroxidase-labeled CD47-Fc (1 µg/mL) on 293α cells expressing SIRPA_V1; y axis = CD47-Fc signal relative to no antibody (100)
# Method: (§2) After the culture supernatant of human SIRPA or monkey SIRPA expression vector-introduced 293α cells prepared in Example 8)-1 was removed, 50 μL per well of hD13_HIL3, hD13_HIL4h, hD13_H2L2, or hD13_H2L3 diluted with 5% FBS-containing PBS to a final concentration of 0 to 10,000 ng/ml was added to each of pcDNA3.2 V5-DEST-SIRPA_V1, pcDNA3.2 V5-DEST-SIRPA_V2, pcDNA3.2 V5-DEST-monkey SIRPA, and pcDNA3.2 V5-DEST-introduced 293α cells, immediately followed by addition of peroxidase-labeled CD47-Fc prepared with 5% FBS-containing PBS at 1 μg/mL, and the mixture was allowed to stand at 4° C. for one hour. Thereafter, the SIRPA-CD47 binding inhibitory activity was evaluated in the same manner as in 1)-6-3.
row,IC50 (read off the curve) [mg/L],Binder
1,~0.7,B1
2,~0.5,B2
3,~0.6,B3
4,~0.6,B4
5,~0.5,B5

# Molecular target: T6, human SIRPA_V2 protein (human, UniProt P78324 31-504)
# T6 construct: Expressed on 293α cells from pcDNA3.2 V5-DEST or pFLAG V5-DEST (FLAG-tagged) vectors; also called human SIRPA Variant 2; ECD variant (full-length, amino acids 1 to 504)
# Experiment: blocking cell-based ELISA: peroxidase-labeled CD47-Fc (1 µg/mL) on 293α cells expressing SIRPA_V2; y axis = CD47-Fc signal relative to no antibody (100)
# Method: as §2
row,IC50 (read off the curve) [mg/L],Binder
1,~0.8,B1
2,~0.6,B2
3,~0.7,B3
4,~0.8,B4
5,~0.7,B5
